Legend:
[1] = target: T1, human PD-L1 (cell surface) (human, UniProt Q9NZQ7); assay: FACS
[2] = target: mouse PD-L1 (cell surface) (mouse, UniProt Q9EP73); assay: FACS, Hepa1-6 cells
[3] = target: T1, human PD-L1 (cell surface); assay: FACS; remark: listed apart in the source
[4] = target: human PD-L1 ECD (human, UniProt Q9NZQ7); assay: BLI
[5] = target: T1, human PD-L1 (cell surface); assay: FACS, T24 cells
[6] = target: T1, human PD-L1 (cell surface); assay: FACS, T24 cells; remark: listed apart in the source
[7] = target: T1, human PD-L1 (cell surface); assay: FACS; remark: listed apart in the source

T1 sequence (Q9NZQ7 19-238): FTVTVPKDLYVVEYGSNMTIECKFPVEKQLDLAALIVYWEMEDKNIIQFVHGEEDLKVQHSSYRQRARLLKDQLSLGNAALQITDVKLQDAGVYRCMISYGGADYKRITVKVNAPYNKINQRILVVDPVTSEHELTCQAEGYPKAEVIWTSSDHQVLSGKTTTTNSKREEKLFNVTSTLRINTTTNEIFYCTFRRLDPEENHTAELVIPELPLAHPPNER
Chain of human PD-L1 ECD (Q9NZQ7 19-238): as above
Chain of mouse PD-L1 (cell surface) (Q9EP73 19-238): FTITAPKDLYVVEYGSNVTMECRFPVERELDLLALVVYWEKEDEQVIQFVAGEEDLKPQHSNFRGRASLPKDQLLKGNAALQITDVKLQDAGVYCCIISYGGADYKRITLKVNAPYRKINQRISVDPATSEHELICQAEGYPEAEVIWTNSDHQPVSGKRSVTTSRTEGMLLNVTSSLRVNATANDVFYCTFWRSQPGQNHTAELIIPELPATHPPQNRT

| Binder | EC50 [1] [nM] | binding result [2] | EC50 [3] [nM] | Kd [4] [nM] | EC50 [5] [nM] | binding result [6] | EC50 [7] [nM] |
| --- | --- | --- | --- | --- | --- | --- | --- |
| 5F8-hv8 (antibody, V domains shown) VH: EVQLVESGGGLVQPGGSLRLSCAASGFDFSDTHMSWVRQAPGKERELVAIITSGGSTDYVDSVKGRFTISRDNSKNTLYLQMNSLRAEDTAVYYCNARRTTIYWGQGTQVTVSS | 0.69 | no binding | – | – | – | – | – |
| R3-5F8 (antibody, V domains shown) VH: EVQLVESGGGLVQPGGSLRLSCVASGFDFSDTHMGWYRQAPGKERELVAIITSGGSTDYVDSVKGRFTISRDNAKNTVYLQMNSLKFEDTAVYYCNARRTTIYWGQGTQVTVSS | – | – | 0.53 | 0.054 | 0.503 | – | – |
| Avastin (antibody, V domains shown) VH: EVQLVESGGGLVQPGGSLRLSCAASGYTFTNYGMNWVRQAPGKGLEWVGWINTYTGEPTYAADFKRRFTFSLDTSKSTAYLQMNSLRAEDTAVYYCAKYPHYYGSSHWYFDVWGQGTLVTVSS VL: DIQMTQSPSSLSASVGDRVTITCSASQDISNYLNWYQQKPGKAPKVLIYFTSSLHSGVPSRFSGSGSGTDFTLTISSLQPEDFATYYCQQYSTVPWTFGQGTKVEIK | – | – | – | – | – | no binding | – |
| R3-3H1 (antibody, V domains shown) VH: QLQLVESGGGVVQPGGSLRLSCAASGIDFSDTHMGWYRQAPGKQRELVAIITSGGSTDYVDSVKGRFTISRDNAKNTVYLQMNSLKFEDTAVYYCNARRSTIYWGQGTQVTVSS | – | – | 0.815 | 1.2 | – | – | – |
| R2-5C12 (antibody, V domains shown) VH: QVQLVESGGGLVQAGGSLRLSCAASGFSASDVVMAWYRQAPGKQREFVANIAARGSTDYANSVKGRFTISRDNAKNTVYLQMNSLKSDDTAVYYCNALVWNGSSYNNWGQGTQVTVSS | – | – | 0.24 | 5.01 | 0.078 | – | 0.22 |
| R2-1F4 (antibody, V domains shown) VH: QVQLVESGGGLVQAGGSLRLSCAASGFSASDVVMAWYRQAPGKQREFVANIAASSTTRYADSVKGRFTISRDDAKNTVSLQMNSLKSEDTAVYYCNALVWNGSSYNNWGQGTQVTVSS | – | – | 0.22 | 2.04 | 0.059 | – | – |

Reference: patent US20260365734 (published 2026)
